Patent US20070014791A1, “Rage-related methods and copositions for treating glomerular injury” (priority 2003, published 2007)

B1: sRAGE: murine soluble RAGE, the extracellular ligand binding domain of RAGE (protein, UniProt Q62151 23-340, looked up)
extracellular domain: GQNITARIGEPLVLSCKGAPKKPPQQLEWKLNTGRTEAWKVLSPQGGPWDSVARILPNGSLLLPATGIVDEGTFRCRATNRRGKEVKSNYRVRVYQIPGKPEIVDPASELTASVPNKVGTCVSEGSYPAGTLSWHLDGKLLIPDGKETLVKEETRRHPETGLFTLRSELTVIPTQGGTHPTFSCSFSLGLPRRRPLNTAPIQLRVREPGPPEGIQLLVEPEGGIVAPGGTVTLTCAISAQPPPQVHWIKDGAPLPLAPSPVLLLPEVGHEDEGTYSCVATHPSHGPQESPPVSIRVTETGDEGPAEGSVGESGLGTLA
modifications: extracellular domain

Assays:
[1] = tested on: male BALB/c mice; conditions: ADR 10.5 mg/kg IV, up to 6 weeks; cited from earlier work
[2] = tested on: male BALB/c mice treated with adriamycin (ADR); experiment: ADR-induced glomerular injury in BALB/c mice: kidney weight and mesangial morphometry (PAS staining); assay type: in vivo, mouse; conditions: for kidney weight/body weight ratio: sRAGE 100 μg per day once daily, vs. PBS-treated mice; for mesangial area / mesangial/glomerular area: sRAGE 100 μg per day, compared with PBS treatment, PAS staining
Method: (§1) Male BALB/c mice at the age of six weeks received one intravenous dose of adriamycin (ADR), 10.5 mg/kg. Immediately after injection of ADR, mice received once daily administration of murine soluble RAGE, the extracellular ligand binding domain of RAGE, 100 μg per day, beginning immediately at the time of ADR treatment, and continued until the day of sacrifice.
Dissected kidneys were fixed in buffered formalin (10%) overnight and then routinely processed for light microscopy. Fixed paraffin-embedded tissues were cut (3 μm thick) and mounted on slides coated with 3-aminopropyltriethoxy silane (Sigma) followed by incubation at 37° C. overnight. Light microscopic views after staining with periodic acid Schiff (PAS) were scanned into a computer and the quantification of areas of mesangial matrix and glomerulus was performed using a Zeiss microscope and image analysis system (MediaCybernetics). To calculate mesangial area, only nuclei-free regions were included. Forty glomeruli from each animal were selected at random on the stained sections (20 from the outer region and 20 from the inner region). Morphometry was performed by investigators blinded to the experimental protocol.
To address the concept that RAGE may be involved in the pathogenesis of ADR-mediated FSGS, a single injection of ADR, 10.5 mg/kg, to male BALB/c mice at age 6 weeks was administered. ADR-treated mice received once daily administration of murine soluble RAGE, the extracellular ligand binding domain of RAGE, 100 μg per day, beginning immediately at the time of ADR treatment, and continued until the day of sacrifice. Other ADR-treated mice received vehicle, PBS.

[3] = tested on: male BALB/c mice treated with adriamycin (ADR); experiment: ADR-induced albuminuria in BALB/c mice: 24 hr urine albumin/creatinine; assay type: in vivo, mouse; conditions: sRAGE 100 μg per day, mean±SE
Method: as §1
Twenty-four hour urine collection was obtained from each animal using metabolic cages. Urine albumin and creatinine were determined using Albuwell M and creatinine assays from Exocell (Philadelphia, Pa.) according to the manufacturer's instructions.
The key test of these concepts was the degree to which blockade of RAGE would suppress the development of albuminuria. Mice were placed in metabolic cages and 24 hr urine collected. Urine levels of albumin and creatinine were determined; results are reported as μg albumin/μg creatinine. […] At six weeks, the results were similarly striking.

Molecule | mice that developed hematuria [1] [%] | mice that developed leukocyturia [1] [%] | kidney weight/body weight ratio ([2]; 2 weeks after ADR 10.5 mg/kg) | mesangial area ([2]; 2 weeks after ADR) | mesangial/glomerular area ([2]; 2 weeks after ADR) | kidney weight/body weight ratio ([2]; 6 weeks after ADR 10.5 mg/kg) | mesangial area ([2]; 6 weeks after ADR) | mesangial/glomerular area ([2]; 6 weeks after ADR) | urine albumin/creatinine ([3]; 2 weeks after ADR, p<0.05 vs. PBS-treated mice receiving ADR (809.55±365.85)) [μg albumin/μg creatinine] | urine albumin/creatinine ([3]; 6 weeks after ADR, p<0.01 vs PBS/ADR (1,362.96±987.97)) [μg albumin/μg creatinine]
COc1cccc2c1C(=O)c1c(O)c3c(c(O)c1C2=O)C[C@@](O)(C(=O)CO)C[C@@H]3O[C@H]1C[C@H](N)[C@H](O)[C@H](C)O1 [ADR, adriamycin] | 35.7 | 53.6 |  |  |  |  |  |  |  | 
B1 |  |  | significantly decreased | significantly decreased | significantly decreased | significantly decreased | significantly decreased | significantly decreased | 191.08±49.93 | 249.76±283.19
